Measurements reported in US20250145690A1 (US Dept. of Health and Human Services, published 2025).

Experiments:
Assay in all cases: bead flow cytometry, AUC minus CD4
[1] = biological target: SARS-CoV-2 spike receptor binding domain (RBD), recombinant (SARS-CoV-2, UniProt P0DTC2 319-541)
[2] = biological target: SARS-CoV-2 spike N-terminal domain (NTD), recombinant (SARS-CoV-2, UniProt P0DTC2 14-305)
[3] = biological target: T1, HCoV-NL63 spike protein (Sino Biological 40604-V08B) (HCoV-NL63, UniProt Q6Q1S2 19-1296)
T1 sequence: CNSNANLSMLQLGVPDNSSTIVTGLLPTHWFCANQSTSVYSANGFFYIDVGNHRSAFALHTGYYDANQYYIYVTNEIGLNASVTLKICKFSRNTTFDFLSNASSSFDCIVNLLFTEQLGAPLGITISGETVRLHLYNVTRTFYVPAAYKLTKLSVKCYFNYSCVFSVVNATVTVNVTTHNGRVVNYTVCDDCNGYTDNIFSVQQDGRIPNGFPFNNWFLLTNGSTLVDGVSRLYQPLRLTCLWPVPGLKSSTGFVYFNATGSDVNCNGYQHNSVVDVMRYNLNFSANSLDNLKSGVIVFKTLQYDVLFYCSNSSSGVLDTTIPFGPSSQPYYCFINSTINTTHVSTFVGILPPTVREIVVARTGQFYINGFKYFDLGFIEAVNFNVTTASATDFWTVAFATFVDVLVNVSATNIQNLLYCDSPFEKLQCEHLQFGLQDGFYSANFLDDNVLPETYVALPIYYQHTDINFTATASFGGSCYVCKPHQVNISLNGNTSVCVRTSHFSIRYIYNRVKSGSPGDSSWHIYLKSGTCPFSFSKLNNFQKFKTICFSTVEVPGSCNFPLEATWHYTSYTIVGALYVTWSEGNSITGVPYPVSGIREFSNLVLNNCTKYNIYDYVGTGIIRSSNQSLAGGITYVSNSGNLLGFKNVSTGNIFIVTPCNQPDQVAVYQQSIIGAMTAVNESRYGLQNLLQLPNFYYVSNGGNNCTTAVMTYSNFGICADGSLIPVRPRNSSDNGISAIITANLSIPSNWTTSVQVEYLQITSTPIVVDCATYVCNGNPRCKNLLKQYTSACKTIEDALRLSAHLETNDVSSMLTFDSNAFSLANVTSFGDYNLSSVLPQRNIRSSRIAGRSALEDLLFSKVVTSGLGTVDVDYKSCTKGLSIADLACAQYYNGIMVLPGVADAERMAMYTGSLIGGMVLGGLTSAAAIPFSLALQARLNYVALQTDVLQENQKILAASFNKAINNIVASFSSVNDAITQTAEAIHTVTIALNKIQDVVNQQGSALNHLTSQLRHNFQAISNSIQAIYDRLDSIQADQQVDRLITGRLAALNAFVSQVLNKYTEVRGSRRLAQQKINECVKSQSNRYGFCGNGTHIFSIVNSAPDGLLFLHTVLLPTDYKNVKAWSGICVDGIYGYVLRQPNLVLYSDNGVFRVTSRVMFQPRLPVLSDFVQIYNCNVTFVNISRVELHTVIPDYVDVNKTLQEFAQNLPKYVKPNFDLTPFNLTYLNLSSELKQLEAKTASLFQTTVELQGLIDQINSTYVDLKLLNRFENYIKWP

[4] = biological target: T2, HCoV-229E spike protein (Sino Biological 40605-V08B) (HCoV-229E, UniProt P15423 16-1115)
T2 sequence: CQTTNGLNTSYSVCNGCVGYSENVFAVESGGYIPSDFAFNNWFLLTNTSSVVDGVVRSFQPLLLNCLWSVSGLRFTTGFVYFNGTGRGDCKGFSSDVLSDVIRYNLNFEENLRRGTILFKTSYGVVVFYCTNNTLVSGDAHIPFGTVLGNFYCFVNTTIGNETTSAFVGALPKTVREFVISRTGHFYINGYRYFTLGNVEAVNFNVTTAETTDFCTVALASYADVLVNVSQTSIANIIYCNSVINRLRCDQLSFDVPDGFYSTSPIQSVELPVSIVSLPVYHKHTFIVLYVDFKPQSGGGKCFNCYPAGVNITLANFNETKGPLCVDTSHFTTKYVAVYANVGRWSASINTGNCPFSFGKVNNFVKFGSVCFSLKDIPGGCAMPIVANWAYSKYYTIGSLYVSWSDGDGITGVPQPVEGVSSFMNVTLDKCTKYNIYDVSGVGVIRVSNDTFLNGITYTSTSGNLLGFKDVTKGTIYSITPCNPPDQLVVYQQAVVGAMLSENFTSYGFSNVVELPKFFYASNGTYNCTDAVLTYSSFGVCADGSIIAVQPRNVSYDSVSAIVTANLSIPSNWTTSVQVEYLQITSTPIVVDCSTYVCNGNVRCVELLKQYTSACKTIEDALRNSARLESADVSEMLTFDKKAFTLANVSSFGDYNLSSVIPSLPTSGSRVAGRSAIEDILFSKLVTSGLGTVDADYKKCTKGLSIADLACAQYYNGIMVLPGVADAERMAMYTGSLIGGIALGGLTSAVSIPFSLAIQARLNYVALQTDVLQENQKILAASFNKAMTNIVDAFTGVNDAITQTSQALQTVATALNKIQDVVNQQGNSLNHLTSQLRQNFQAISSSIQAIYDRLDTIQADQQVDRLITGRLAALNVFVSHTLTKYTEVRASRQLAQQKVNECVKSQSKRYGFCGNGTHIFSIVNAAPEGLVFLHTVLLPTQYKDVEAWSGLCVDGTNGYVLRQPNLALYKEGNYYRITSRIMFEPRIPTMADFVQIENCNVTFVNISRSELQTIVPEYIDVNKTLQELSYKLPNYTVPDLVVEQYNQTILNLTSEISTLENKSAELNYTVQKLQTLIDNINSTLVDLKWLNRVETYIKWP

Measured: binding result

B1: COV30-35 (antibody, V domains shown)
VH: QVQLQESGPGQVKPSGTLSLTCAVSGGSINSSNWWSWVRQPPGKGLEWIGEIFHSGNTNYKPSLESRVTISFDKSKKELSLRLTSVTAADTAVYYCATLFCSGGTCYLGDWGQGTLVTVSS
VL: EIVLTQSPGTLSVSPGQRATLSCRASESVSSRYVAWYQQKPGQAPRLIIYGASSRATGIPDRFSGSGSGTEFILSISRLEPEDSAVYYCQQYGSSPTFGGGTKVEIK
no binding (tested: 200 µg/mL): [1] | [2] | [3]

B2: COV77-42 (antibody, V domains shown)
VH: QVYLQESGPGLVKPSQTLSLTCAVSGGSIRSDGYYWTWIRQHPGKGLEWIGNTYYNGNTYYNPSLRSRVTTSLDTSKNQFSLKVVSMTGADTAVYYCARGRLGFCAGGACFLDTLDYWGQGTLVTVSS
VL: EIVMTQSPVTLSVSPGERVTLSCRADQSVNNNLAWYQQKPGQAPRLLIHGASTRATGIPARFSGSGSGTEFTLTISSLQSEDFAIYYCQQYYNWLLTFGGGTKLEIK
no binding (tested: 200 µg/mL): [1] | [2] | [3]

B3: COV93-17 (antibody, V domains shown)
VH: EVQLVQSGAEVKKPGESLRISCRGSGYSFTNYWISWVRQMPGKGLEWMGRIDPTDSYTNYSPSFQGHVTISTDKSISTAYLQWSSLKASDTAMYYCARHKNGMIHEYDYWGQGILVTVSS
VL: DIQLTQSPSTLSASVGDRVTITCRASQSIRSWLAWYQQKPGKAPKLLIYRASSLESGVPSRFSGSGSGTEFTLTISSLQPDDFATYYCQQYGTFGPGTKVDIR
no binding (tested: 200 µg/mL): all assays above

B4: COV72-37 (antibody, V domains shown)
VH: QVQLVQSGAEVKKPAASVKVSCKASGDTFSSHYMHWVRQAPGQGPEWMGIINPSGSGTAYGQKFQGRLTMTRDTSTSTVYMELSSLTSDDTAVYYCGGGSGGLFAYWGQGTLVTVSS
VL: EIVLTQSPGTLSLSPGERATLSCRASQIVRSNYLAWYQQKPGQAPRLLIYGASSRATGTPDRFSGGGSGTDFTLTINRLEPEDFAVYYCLQYDSSPPTYIFGQGTKLEIK
no binding (tested: 200 µg/mL): [2] | [3] | [4]

B5: COV30-14 (antibody, V domains shown)
VH: QVQLVQSGAEVKKPGASVKVSCQTSGYTFTSYYMHWVRQAPGQGLEWMGLITPSGDDTYYAQRFQGRVTMTRDTSTSPTYMELSSLTSEDTAVYYCAKMSRAGGFDVWGQGTLVTVSS
VL: EVVLTQSPGTLSLSPGERATLSCRASQSITGRYLAWYQQKPGQAPRLLMYGESSRVTGIPDRFSGGGSGTDFTLTISRLEPEDFAVYYCQHFASSPPTYTFGQGTKLEIR
no binding (tested: 200 µg/mL): [2] | [3] | [4]

B6: COV77-05 (antibody, V domains shown)
VH: QMQLHESGPGLVKPSQTLSLTCAVSGGSISSDGYYWNWVRQHPGKGLELIAYIYYNGRPYYNPSLRSRVNISLDTSMNQFSLRMKSLTAADTAVYYCARGRLGYCAGGSCFLESFDYWGQGALVTVSS
VL: EIVMTQSPATLSVSPGETATLSCRASESISSNLAWYQQKPGQAPRLLIYGASTRATGIPARFSGSGSGTEFALTISSLQAEDFAVYSCQQYHNWLLTFGGGTKVEIK
no binding (tested: 200 µg/mL): [1] | [2] | [3]

B7: COV89-22 (antibody, V domains shown)
VH: QEQLVQSGAEVKKPGASVKVSCKSSGFTFSYFYLHWVRQAPGQGLEWMGIINPRGDGTRYAQKFQGRVTMTRDASTGTLYMELRSLRSEDTAVYYCARGADHGAFDIWGQGTMVTVSS
VL: EIVLTQSPGTLSLSPGERATLSCRASQSVRRNYFAWYQQKRGQAPRLLIYDASTRATGIPDRFSGSGSGTDFTLTISRLEPEDFAVYYCQQYDSSPPMYIFGQGTKLEIK
no binding (tested: 200 µg/mL): [2] | [3]

B8: COV93-08 (antibody, V domains shown)
VH: QVQLRESGPGVVKPSGTLSLTCTVSGDFINNNRWWTWVRQSPGKGLEWIGEIYHSGSTNYNPSLKGRVTISVDKSKNHFSLKLTSVTAADTAMYYCARGGYCTVGDCHDNWFDPWGQGTLVTVSS
VL: DIQMTQSPSTLSASVGDRVTITCRASQNINSWLAWYQQKPGKAPKVLIYKASSLESGVPSRFSGSVSGTEFTLTISSLQPDDFATYYCQQYSTLSWTFGQGTKVDIK
no binding (tested: 200 µg/mL): all assays above

B9: COV93-38 (antibody, V domains shown)
VH: QVQLQESGPGVVKPSGTLSLTCAVSGDFSNNNRWWTWVRQSPGKGLEWIGEIHQSGSTNYNPSLKSRITISVDKSKNQFSLKLTSVTAADTAVYYCARGGYCSVGDCHDNWFDPWGQGTLVTVSS
VL: DIQMTQSPSTLSASVGDRVTITCRASQTINSWLAWYQQKPGKAPKVLIYKASSLESGVPSRFSGSVSGTEFTLTISSLQPDDFATYYCQQYSSLSWTFGQGTKVDIK
no binding (tested: 200 µg/mL): all assays above
